Laboratory results taken from paper PMC4734665.

Each sequence was assayed against WRKY6-His (UniProt Q9C519) (assay: EMSA). Conditions: EMSA: 20 uL, 0.5 ug protein, 1 uL of 50 ug/mL biotin probe, 2 uL 10x buffer (1x = 10 mM Tris, 50 mM KCl, 1 mM DTT, pH 7.5), 1 uL 1% NP-40, 0.5 uL 1 mg/mL ….
Chain of WRKY6-His (Q9C519 whole entry, the tested form may be a part): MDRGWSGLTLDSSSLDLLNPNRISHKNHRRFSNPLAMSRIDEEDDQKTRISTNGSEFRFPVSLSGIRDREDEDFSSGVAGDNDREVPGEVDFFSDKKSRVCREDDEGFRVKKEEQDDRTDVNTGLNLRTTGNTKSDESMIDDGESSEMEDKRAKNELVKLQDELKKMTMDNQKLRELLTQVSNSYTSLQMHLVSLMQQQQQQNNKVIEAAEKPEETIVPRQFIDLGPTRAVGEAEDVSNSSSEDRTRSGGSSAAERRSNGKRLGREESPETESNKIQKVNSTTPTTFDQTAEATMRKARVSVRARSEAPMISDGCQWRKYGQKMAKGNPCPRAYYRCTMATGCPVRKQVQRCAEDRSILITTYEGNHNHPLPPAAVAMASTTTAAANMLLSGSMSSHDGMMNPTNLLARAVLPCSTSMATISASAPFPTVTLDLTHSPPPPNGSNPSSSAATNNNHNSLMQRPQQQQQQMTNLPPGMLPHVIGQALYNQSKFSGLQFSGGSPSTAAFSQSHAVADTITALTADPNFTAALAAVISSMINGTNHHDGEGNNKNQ
“GGAAAATTCCTATTTTCCCGATTACATTTTAACACATCAAAATAGGTACTGTGTTTTATAAATCTGAACAAACAATTAGTAATGTTCATACTTTAACATTTAAAAAATTCAAATTATCTACCTCAACTCTTACTTTTGTACATAATTATGAGTCAACGTTAGTTATGGTAATTAACAGTAACGGTTGTTGAATCAGCTAACACTTGTACGTCGAGATGGCATGTTCTTCAAACCAAAT (double strand) [ABI3 promoter fragment]” was tested, and the binding was “binds”. For “GATAAGATCGTAAGCTATCCACATCACTTGTTAATTGTCCTCAAACCATATTATATAATGCAAACAATTTATGGCGTTAAATCCTTACGTATTTATTCTCTATAAGAGTAAAACACACACACTGAAGGCAACTGATTTAATTGGATTTCTATACGTCAGTAGAAATACTTGTTATGATGTCGGTCGCTCGTTGGCTAAGTATTTCTTATAAATATATAAGACATATTTAAAATCTTTTTACATTACATACACCCACTTATGAGAAAC (double strand) [RAV1 promoter P2 mutant]”, the binding was “no binding”. For “GATAAGATCGTAAGCTATCCACATCACTTGTTAATTGTCCTCAAACCATATTATATAATGCAAACAATTTATGGCGTTAAATCCTTACGTATTTATTCTCTATAAGAGTAAAACACACACACTGAAGGCAACTGATTTAATTGGATTTCTATTGACCAGTAGAAATACTTGTTATGATGTCGGTCGCTCGTTGGCTAAGTATTTCTTATAAATATATAAGACATATTTAAAATCTTTTTACATTACATACACCCACTTATGAGAAAC (double strand) [RAV1 promoter P2]”, the binding was “binds”.
